Our source for the Ki values is patent US20260015399A1 (Boehringer Ingelheim, published 2026).

*1 amine or outer side, *2 acyl side, *3 side chain or, on linkers, in order; H or OH if unused. Side-chain parts run from the residue outwards. The star is where a group is joined. C18 diacid = O=C(O)CCCCCCCCCCCCCCCCC(=O)*; γGlu = O=C(O)[C@H](CCC(=O)[*:2])N[*:1]; Isovaleryl = CC(C)CC(=O)*; Ahx = NCCCCCC(=O)O

T1: human NPY2 receptor (human, UniProt P49146 1-381)
T1 construct: whole, on cells; also called hNPY2-R; hNPY2R
T1 sequence (looked up): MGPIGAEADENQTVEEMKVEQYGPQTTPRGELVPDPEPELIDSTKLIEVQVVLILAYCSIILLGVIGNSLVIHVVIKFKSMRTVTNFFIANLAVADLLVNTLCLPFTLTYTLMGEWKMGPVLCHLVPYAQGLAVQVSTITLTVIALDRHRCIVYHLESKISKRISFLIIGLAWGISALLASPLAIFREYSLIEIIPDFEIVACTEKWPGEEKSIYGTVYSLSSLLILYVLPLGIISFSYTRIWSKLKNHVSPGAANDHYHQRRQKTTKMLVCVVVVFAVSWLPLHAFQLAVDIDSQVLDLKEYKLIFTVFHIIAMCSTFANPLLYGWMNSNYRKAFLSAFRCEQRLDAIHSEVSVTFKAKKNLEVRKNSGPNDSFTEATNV

B1: Compound 144 (peptide)
peptide: Isovaleryl-APEK([Ahx-γGlu-C18 diacid])PEEDQTPEELQRYYVSLRHYYNWLTRQRY-NH2
SMILES: CC(C)CC(=O)N[C@@H](C)C(=O)N1CCC[C@H]1C(=O)N[C@@H](CCC(=O)O)C(=O)N[C@@H](CCCCNC(=O)CCCCCNC(=O)CC[C@H](NC(=O)CCCCCCCCCCCCCCCCC(=O)O)C(=O)O)C(=O)N1CCC[C@H]1C(=O)N[C@@H](CCC(=O)O)C(=O)N[C@@H](CCC(=O)O)C(=O)N[C@@H](CC(=O)O)C(=O)N[C@@H](CCC(N)=O)C(=O)N[C@H](C(=O)N1CCC[C@H]1C(=O)N[C@@H](CCC(=O)O)C(=O)N[C@@H](CCC(=O)O)C(=O)N[C@@H](CC(C)C)C(=O)N[C@@H](CCC(N)=O)C(=O)N[C@@H](CCCNC(=N)N)C(=O)N[C@@H](Cc1ccc(O)cc1)C(=O)N[C@@H](Cc1ccc(O)cc1)C(=O)N[C@H](C(=O)N[C@@H](CO)C(=O)N[C@@H](CC(C)C)C(=O)N[C@@H](CCCNC(=N)N)C(=O)N[C@@H](Cc1c[nH]cn1)C(=O)N[C@@H](Cc1ccc(O)cc1)C(=O)N[C@@H](Cc1ccc(O)cc1)C(=O)N[C@@H](CC(N)=O)C(=O)N[C@@H](Cc1c[nH]c2ccccc12)C(=O)N[C@@H](CC(C)C)C(=O)N[C@H](C(=O)N[C@@H](CCCNC(=N)N)C(=O)N[C@@H](CCC(N)=O)C(=O)N[C@@H](CCCNC(=N)N)C(=O)N[C@@H](Cc1ccc(O)cc1)C(N)=O)[C@@H](C)O)C(C)C)[C@@H](C)O
B2: Compound 148 (peptide)
peptide: Isovaleryl-APEK([Ahx-γGlu-C18 diacid])PEEDATPEELQRYYVTLRHYYNWLTRQRY-NH2
SMILES: CC(C)CC(=O)N[C@@H](C)C(=O)N1CCC[C@H]1C(=O)N[C@@H](CCC(=O)O)C(=O)N[C@@H](CCCCNC(=O)CCCCCNC(=O)CC[C@H](NC(=O)CCCCCCCCCCCCCCCCC(=O)O)C(=O)O)C(=O)N1CCC[C@H]1C(=O)N[C@@H](CCC(=O)O)C(=O)N[C@@H](CCC(=O)O)C(=O)N[C@@H](CC(=O)O)C(=O)N[C@@H](C)C(=O)N[C@H](C(=O)N1CCC[C@H]1C(=O)N[C@@H](CCC(=O)O)C(=O)N[C@@H](CCC(=O)O)C(=O)N[C@@H](CC(C)C)C(=O)N[C@@H](CCC(N)=O)C(=O)N[C@@H](CCCNC(=N)N)C(=O)N[C@@H](Cc1ccc(O)cc1)C(=O)N[C@@H](Cc1ccc(O)cc1)C(=O)N[C@H](C(=O)N[C@H](C(=O)N[C@@H](CC(C)C)C(=O)N[C@@H](CCCNC(=N)N)C(=O)N[C@@H](Cc1c[nH]cn1)C(=O)N[C@@H](Cc1ccc(O)cc1)C(=O)N[C@@H](Cc1ccc(O)cc1)C(=O)N[C@@H](CC(N)=O)C(=O)N[C@@H](Cc1c[nH]c2ccccc12)C(=O)N[C@@H](CC(C)C)C(=O)N[C@H](C(=O)N[C@@H](CCCNC(=N)N)C(=O)N[C@@H](CCC(N)=O)C(=O)N[C@@H](CCCNC(=N)N)C(=O)N[C@@H](Cc1ccc(O)cc1)C(N)=O)[C@@H](C)O)[C@@H](C)O)C(C)C)[C@@H](C)O
B3: Compound 151 (peptide)
peptide: Isovaleryl-APEK([Ahx-γGlu-C18 diacid])PEEDSSPEELQRYYVALRHYYNWLTRQRY-NH2
SMILES: CC(C)CC(=O)N[C@@H](C)C(=O)N1CCC[C@H]1C(=O)N[C@@H](CCC(=O)O)C(=O)N[C@@H](CCCCNC(=O)CCCCCNC(=O)CC[C@H](NC(=O)CCCCCCCCCCCCCCCCC(=O)O)C(=O)O)C(=O)N1CCC[C@H]1C(=O)N[C@@H](CCC(=O)O)C(=O)N[C@@H](CCC(=O)O)C(=O)N[C@@H](CC(=O)O)C(=O)N[C@@H](CO)C(=O)N[C@@H](CO)C(=O)N1CCC[C@H]1C(=O)N[C@@H](CCC(=O)O)C(=O)N[C@@H](CCC(=O)O)C(=O)N[C@@H](CC(C)C)C(=O)N[C@@H](CCC(N)=O)C(=O)N[C@@H](CCCNC(=N)N)C(=O)N[C@@H](Cc1ccc(O)cc1)C(=O)N[C@@H](Cc1ccc(O)cc1)C(=O)N[C@H](C(=O)N[C@@H](C)C(=O)N[C@@H](CC(C)C)C(=O)N[C@@H](CCCNC(=N)N)C(=O)N[C@@H](Cc1c[nH]cn1)C(=O)N[C@@H](Cc1ccc(O)cc1)C(=O)N[C@@H](Cc1ccc(O)cc1)C(=O)N[C@@H](CC(N)=O)C(=O)N[C@@H](Cc1c[nH]c2ccccc12)C(=O)N[C@@H](CC(C)C)C(=O)N[C@H](C(=O)N[C@@H](CCCNC(=N)N)C(=O)N[C@@H](CCC(N)=O)C(=O)N[C@@H](CCCNC(=N)N)C(=O)N[C@@H](Cc1ccc(O)cc1)C(N)=O)[C@@H](C)O)C(C)C
notes: printed structure identical to Compound 24
B4: Compound 152 (peptide)
peptide: Isovaleryl-APEK([Ahx-γGlu-C18 diacid])PEEDATPEETQRYYVSLRHYYNWLTRQRY-NH2
SMILES: CC(C)CC(=O)N[C@@H](C)C(=O)N1CCC[C@H]1C(=O)N[C@@H](CCC(=O)O)C(=O)N[C@@H](CCCCNC(=O)CCCCCNC(=O)CC[C@H](NC(=O)CCCCCCCCCCCCCCCCC(=O)O)C(=O)O)C(=O)N1CCC[C@H]1C(=O)N[C@@H](CCC(=O)O)C(=O)N[C@@H](CCC(=O)O)C(=O)N[C@@H](CC(=O)O)C(=O)N[C@@H](C)C(=O)N[C@H](C(=O)N1CCC[C@H]1C(=O)N[C@@H](CCC(=O)O)C(=O)N[C@@H](CCC(=O)O)C(=O)N[C@H](C(=O)N[C@@H](CCC(N)=O)C(=O)N[C@@H](CCCNC(=N)N)C(=O)N[C@@H](Cc1ccc(O)cc1)C(=O)N[C@@H](Cc1ccc(O)cc1)C(=O)N[C@H](C(=O)N[C@@H](CO)C(=O)N[C@@H](CC(C)C)C(=O)N[C@@H](CCCNC(=N)N)C(=O)N[C@@H](Cc1c[nH]cn1)C(=O)N[C@@H](Cc1ccc(O)cc1)C(=O)N[C@@H](Cc1ccc(O)cc1)C(=O)N[C@@H](CC(N)=O)C(=O)N[C@@H](Cc1c[nH]c2ccccc12)C(=O)N[C@@H](CC(C)C)C(=O)N[C@H](C(=O)N[C@@H](CCCNC(=N)N)C(=O)N[C@@H](CCC(N)=O)C(=O)N[C@@H](CCCNC(=N)N)C(=O)N[C@@H](Cc1ccc(O)cc1)C(N)=O)[C@@H](C)O)C(C)C)[C@@H](C)O)[C@@H](C)O
B5: Compound 149 (peptide)
peptide: Isovaleryl-APAK([Ahx-γGlu-C18 diacid])PEEDASPEESQRYYVSLRHYYNWLTRQRY-NH2
SMILES: CC(C)CC(=O)N[C@@H](C)C(=O)N1CCC[C@H]1C(=O)N[C@@H](C)C(=O)N[C@@H](CCCCNC(=O)CCCCCNC(=O)CC[C@H](NC(=O)CCCCCCCCCCCCCCCCC(=O)O)C(=O)O)C(=O)N1CCC[C@H]1C(=O)N[C@@H](CCC(=O)O)C(=O)N[C@@H](CCC(=O)O)C(=O)N[C@@H](CC(=O)O)C(=O)N[C@@H](C)C(=O)N[C@@H](CO)C(=O)N1CCC[C@H]1C(=O)N[C@@H](CCC(=O)O)C(=O)N[C@@H](CCC(=O)O)C(=O)N[C@@H](CO)C(=O)N[C@@H](CCC(N)=O)C(=O)N[C@@H](CCCNC(=N)N)C(=O)N[C@@H](Cc1ccc(O)cc1)C(=O)N[C@@H](Cc1ccc(O)cc1)C(=O)N[C@H](C(=O)N[C@@H](CO)C(=O)N[C@@H](CC(C)C)C(=O)N[C@@H](CCCNC(=N)N)C(=O)N[C@@H](Cc1c[nH]cn1)C(=O)N[C@@H](Cc1ccc(O)cc1)C(=O)N[C@@H](Cc1ccc(O)cc1)C(=O)N[C@@H](CC(N)=O)C(=O)N[C@@H](Cc1c[nH]c2ccccc12)C(=O)N[C@@H](CC(C)C)C(=O)N[C@H](C(=O)N[C@@H](CCCNC(=N)N)C(=O)N[C@@H](CCC(N)=O)C(=O)N[C@@H](CCCNC(=N)N)C(=O)N[C@@H](Cc1ccc(O)cc1)C(N)=O)[C@@H](C)O)C(C)C

The target of the assay is T1, human NPY2 receptor. As to the kind of experiment: RLB: displacement of 125I-PYY(1-36) from hNPY2R membranes.
Molecule B1 yielded an inhibitory constant (Ki) of 9.76 nM.

As to B2, the Ki amounted to 2.85 nM. This Ki is about 3.4-fold lower than that of the molecule before.

As to B3, the Ki amounted to 1.68 nM. Against the preceding molecule, the Ki is about 1.7-fold lower.

As for B4, the affinity corresponds to a Ki of 1.32 nM.

B5 gave an inhibition constant Ki of 3.97 nM. This Ki lies about 3-fold higher than the previous one.
